Assay results from patent US20180162932A1 (ACADEMISCH MEDISCH CENTRUM, published 2018).
Values joined by “and” are separate entries in the source; they are usually repeats but may differ in a detail not shown here. Equal values may be shown once.

T1: human mature bone morphogenic protein 6 (human, UniProt P22004 375-513)
T1 construct: also called BMP6; BMP-6
T1 sequence: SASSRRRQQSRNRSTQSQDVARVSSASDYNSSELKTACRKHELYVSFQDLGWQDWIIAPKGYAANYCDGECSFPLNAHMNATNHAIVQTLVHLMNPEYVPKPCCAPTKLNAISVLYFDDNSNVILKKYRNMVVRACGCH

T2: human mature bone morphogenic protein 5 (human, UniProt P22003 340-454)
T2 construct: Often printed as BMPS in the text; also called BMP5; BMPS (so in the source)
T2 sequence: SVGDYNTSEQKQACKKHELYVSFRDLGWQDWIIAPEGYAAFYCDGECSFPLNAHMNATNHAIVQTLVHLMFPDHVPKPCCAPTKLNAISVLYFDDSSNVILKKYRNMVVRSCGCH

T3: human mature bone morphogenic protein 7 (human, UniProt P18075 293-431)
T3 construct: also called BMP7; BMP-7
T3 sequence: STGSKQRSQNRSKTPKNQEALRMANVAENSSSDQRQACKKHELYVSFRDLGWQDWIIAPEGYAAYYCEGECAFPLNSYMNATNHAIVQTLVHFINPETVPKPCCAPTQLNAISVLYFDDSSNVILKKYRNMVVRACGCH

B1: human mature bone morphogenic protein 4 (ligand)
chain: KHHSQRARKKNKNCRRHSLYVDFSDVGWNDWIVAPPGYQAFYCHGDCPFPLADHLNSTNHAIVQTLVNSVNSSIPKACCVPTELSAISMLYLDEYDKVVLKNYQEMVVEGCGCR
notes: Recombinant, R&D Systems (314-BP-020); mature active dimer; also called BMP4; BMP-4
B2: C8C8 homo-bihead (designed binder)
chain: EVQLVESGGGLVQAGGSLRLSCAASGRTFRINDMGWYRQAPGKSRDMVARITSGGNTNYADSVKGRFTISRDNAKNTVYLQMNSLKPEDTAVYYCNADGLRFDSTRYRPFDSWGQGTQVTVSSGGGGSGGGGSEVQLVESGGGLVQAGGSLRLSCAASGRTFRINDMGWYRQAPGKSRDMVARITSGGNTNYADSVKGRFTISRDNAKNTVYLQMNSLKPEDTAVYYCNADGLRFDSTRYRPFDSWGQGTQVTVSS
B3: VHH C4 (VHH)
VHH: EVQLVESGGGLVQAGGSLRLSCAASGRTFSTYAMGWFRQAPGKEREFVAAISKGGGITYYSDSVRGRFTISKENAKNTVYLQMNSLKPEDTAVYYCAADPVSSVAKSPVAYPYWGQGTQVTVSS
notes: Produced in E. coli periplasm with tags (anti-myc detection, TALON purification); also called C4 monomer; C4 monohead
B4: VHH C8 (VHH)
VHH: EVQLVESGGGLVQAGGSLRLSCAASGRTFRINDMGWYRQAPGKSRDMVARITSGGNTNYADSVKGRFTISRDNAKNTVYLQMNSLKPEDTAVYYCNADGLRFDSTRYRPFDSWGQGTQVTVSS
notes: also called C8 monomer
B5: mouse Noggin (other, UniProt P97466 28-232, looked up)
chain: QHYLHIRPAPSDNLPLVDLIEHPDPIFDPKEKDLNETLLRSLLGGHYDPGFMATSPPEDRPGGGGGPAGGAEDLAELDQLLRQRPSGAMPSEIKGLEFSEGLAQGKKQRLSKKLRRKLQMWLWSQTFCPVLYAWNDLGSRFWPRYVKVGSCFSKRSCSVPEGMVCKPSKSVHLTVLRWRCQRRGGQRCGWIPIQYPIISECKCSC
B6: C4C4 homo-bihead (designed binder)
chain: EVQLVESGGGLVQAGGSLRLSCAASGRTFSTYAMGWFRQAPGKEREFVAAISKGGGITYYSDSVRGRFTISKENAKNTVYLQMNSLKPEDTAVYYCAADPVSSVAKSPVAYPYWGQGTQVTVSSGGGGSGGGGSEVQLVESGGGLVQAGGSLRLSCAASGRTFSTYAMGWFRQAPGKEREFVAAISKGGGITYYSDSVRGRFTISKENAKNTVYLQMNSLKPEDTAVYYCAADPVSSVAKSPVAYPYWGQGTQVTVSS
notes: also called C4C4 dimer
B7: VHH E7 (VHH)
VHH: EVQLVESGGGLVQAGGSLRLSCAASGSIRGFVAMAWYRQAPGKQREWVATVTNGGTLYGDSVKGRFTGSRDNAKNTVYLQMNSLKPEDTAVYYCALRQIGASGYDYWGQGTQVTVSS
notes: also called E7 monomer

Legend:
[1] = biological target: B1; assay: cell-based or functional assay
[2] = biological target: T4, mature bone morphogenic protein 2 (human, UniProt P12643 283-396); assay: cell-based or functional assay
[3] = biological target: B5; assay: SPR (IBIS MX96), VHH or control on chip, BMP injected
Description: (§1) In a first set of experiments, controls and VHHs (either as monomers or dimers) were coupled to SPR chips and the measurement of BMP affinities was obtained by injecting the different BMPs to the plate.
(§2) Serial dilutions (2.0-10 μg/ml) of purified VHHs were spotted on an amine-specific SensEye gold-film gel-type SPRchip (Ssens), using a Continuous Flow Microspotter (Wasatch Microfluidics, Salt Lake City, Utah, United States) as described (Lokate et al., 2007). BMP binding was analyzed on an IBIS MX96 (IBIS Technologies, Enschede, The Netherlands) instrument by performing injections with dilution series (0.05-2.0 μg/ml) of recombinant BMPs on the VHH-coated chip. In each injection, BMPs were injected and incubated for 8 min, followed by 15 min thorough washing with binding buffer (PBS+0.05% Tween20+0.05% sodium azide) to measure dissociation. Epitope binning was done by injecting VHH dilutions (2.0 μg/ml) over the chip, immediately after the dissociation step. Injections with blank binding buffer were used as reference. After each concatenated injection, the chip was regenerated with 10mM glycine-HCl, pH 2.0. Experimental data were processed with SPRintX software (IBIS Technologies) and kinetic parameters were determined using Scrubber2 software (BioLogic Software, Campbell, ACT, Australia). Binding constants were obtained by global fitting to a one-site binding model.

[4] = biological target: B1; assay: titration ELISA of purified VHH on immobilized BMP4
[5] = biological target: T4, mature bone morphogenic protein 2; assay: SPR (IBIS), VHH spotted on the chip, BMP2 injected
Description: as §1, §2

[6] = biological target: T1, human mature bone morphogenic protein 6; assay: SPR, VHH on chip, BMP injected
Description: as §2

[7] = biological target: T2, human mature bone morphogenic protein 5; assay: SPR, VHH on chip, BMP injected
Description: as §2

[8] = biological target: T3, human mature bone morphogenic protein 7; assay: SPR, VHH on chip, BMP injected
Description: as §2

[9] = biological target: T2, human mature bone morphogenic protein 5; assay: western blot of unreduced recombinant BMP, C4C4 as primary antibody
Description: To determine the different forms of BMP4, recombinant proteins and carcinoma cell lines lysate were used. Protein concentrations of cell lysates were determined using Pierce™ BCA Protein Assay Kit (Pierce Biotechnology, Rockford, Ill. USA), following the manufacturer's protocol. Equal amount of sample were loaded (between 8 and 30 μg/lane) on a 10% SDS-polyacrylamide gel and subsequently blotted onto PVDF transfer membranes. The membranes were blocked with blocking solution (5% Nonfatmilk+Tris-Buffered Saline with Tween®-20 (TBST) or 5% bovine serum albumin (BSA)+TBST) and subsequently incubated with the appropriate primary antibody and secondary antibody. Afterwards, membranes were washed and incubate with chemiluminescent solution (Pierce™ ECL subtract, Pierce Biotechnology, Rockford, Ill. USA) and visualized using ImageQuant LAS 4000 (GE Healthcare Life Science). […] Secondary antibodies include: HRP-anti-rabbit (1:200; Cat. No. P0448; Dako), HRP-anti-mouse (1:2000; Cat. No. P0447; Dako) and HRP-anti-llama (1:1000; Cat. No. ab112786; Abcam).

[10] = biological target: B1; assay: SPR, ratio of KD values
Description: as §1, §2

[11] = biological target: B1; assay: SPR (IBIS MX96), VHH or control on chip, BMP injected
Description: as §1, §2

[12] = biological target: T1, human mature bone morphogenic protein 6; assay: summary of SPR results

T4 sequence (P12643 283-396): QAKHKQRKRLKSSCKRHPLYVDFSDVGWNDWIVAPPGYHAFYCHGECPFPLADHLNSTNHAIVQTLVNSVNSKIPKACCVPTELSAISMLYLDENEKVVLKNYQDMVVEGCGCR

human Noggin (from UniProt Q13253 28-232)
IC50, BRE-luciferase, C2C12 cells [1]: 540 pM | IC50, BRE-luciferase, C2C12 cells [2]: 1600 pM

anti-BMP4 R&D (Clone 66119, Mouse IgG2B, MAB757) (antibody)
percent inhibition of the BMP4-specific signal at 100 ng/ml, BRE-luciferase, C2C12 cells [1]: 30%

B1
Kd [3]: 91 pM

B2
IC50, BRE-luciferase, C2C12 cells [1]: ~450 pM | fold potency on BMP4 against BMP2, BRE-luciferase, C2C12 cells [1]: 16 fold | IC50, BRE-luciferase, C2C12 cells [2]: 1200 pM

B3
EC50 (read off the curve) [4]: ~3000 pM

B4
binding result [5]: binds | binding result [6]: no binding | binding result [7]: no binding | binding result [8]: no binding

B5
IC50, BRE-luciferase, C2C12 cells [1]: ~615 pM | IC50, BRE-luciferase, C2C12 cells [2]: ~2500 pM

B6
IC50, BRE-luciferase, C2C12 cells [1]: ~600 pM and 1.3 ng/ml and 45 nM | fold increase in inhibition against monomer C4, BRE-luciferase, C2C12 cells [1]: 9 fold | binding result [9]: no binding (tested: 0.1 µg/ml primary antibody) | fold higher affinity than BMPR1a [10]: 70 fold | fold higher affinity than Noggin [10]: 10 fold | Kd [11]: 9.7 pM

B7
binding result [12]: binds
